Experimental data as given in paper PMC4313098, “Mesencephalic Astrocyte-Derived Neurotrophic Factor Is Involved in Inflammation by Negatively Regulating the NF-κB Pathway” (Scientific Reports, 2015).

Target: T1, p65-N2-His (amino acids 1-190) (UniProt Q04206 1-190)
T1 construct: NF-κB p65, N-terminal 190 residues, subcloned into pET28a; also called p65-N2-6 × His; 6 × His-tagged p65-N2 fragment; source: E. coli, purified
Test: pull-down; in vitro: purified GST-fused MANF (or truncate, or GST) pre-bound to glutathione-agarose; purified p65-N2-6xHis loaded in 50 mM Tris-HCl pH 7.5, 100 mM NaCl, 0.1% Triton X-100, 1 hr at 4°C; eluted with 500 mM NaCl; blot with anti-His
Conditions: both partners purified

T1 sequence (Q04206 1-190): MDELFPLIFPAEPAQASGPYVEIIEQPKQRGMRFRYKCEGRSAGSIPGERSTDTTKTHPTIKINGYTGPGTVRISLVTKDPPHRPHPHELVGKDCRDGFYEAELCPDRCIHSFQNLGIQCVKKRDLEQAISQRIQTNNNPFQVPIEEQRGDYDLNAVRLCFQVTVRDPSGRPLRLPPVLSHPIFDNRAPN

binding result: binds
B1: MANF-D3-GST (C-terminal SAP-like domain, amino acids 96-182) (domain or fragment, human, UniProt P55145 96-182, looked up)
chain: LAHHIPVEKICEKLKKKDSQICELKYDKQIDLSTVDLKKLRVKELKKILDDWGETCKGCAEKSDYIRKINELMPKYAPKAASARTDL
